Measured values from PMC5389568.

B1: Control-2 (dsDNA)
DNA 1: GAGGCGTGGC
DNA 2: TTGCCACGCCTC
B2: Control-1 (dsDNA)
DNA 1: GTCAGCGCATGG
DNA 2: CCATGCGCTGAC
B3: E-box 12-mer C/5hmC (dsDNA)
DNA 1: TGCCACGTGACC
DNA 2: GGTCACGTGGCA
modifications: 5hmC at position 6 of strand 2
B4: E-box 12-mer C/5fC (dsDNA)
DNA 1: TGCCACGTGACC
DNA 2: GGTCACGTGGCA
modifications: 5fC at position 6 of strand 2
B5: E-box 12-mer C/5caC (dsDNA)
DNA 1: TGCCACGTGACC
DNA 2: GGTCACGTGGCA
modifications: 5caC at position 6 of strand 2
B6: E-box 12-mer C/C (dsDNA)
DNA 1: TGCCACGTGACC
DNA 2: GGTCACGTGGCA
B7: E-box 12-mer C/5mC (dsDNA)
DNA 1: TGCCACGTGACC
DNA 2: GGTCACGTGGCA
modifications: 5mC at position 6 of strand 2

These binders were tested against T1, MAX full length (Homo sapiens, UniProt P61244 1-160) (assay: fluorescence polarization).
T1 sequence (P61244 whole entry): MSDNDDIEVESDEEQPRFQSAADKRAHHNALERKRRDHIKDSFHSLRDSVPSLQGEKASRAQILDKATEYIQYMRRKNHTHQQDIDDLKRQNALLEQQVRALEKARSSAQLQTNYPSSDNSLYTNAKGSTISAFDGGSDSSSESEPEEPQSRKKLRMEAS

Row | Binder | binding result
1 | B1 | no binding
2 | B2 | no binding

What follows are binders tested against MAX H28R (Homo sapiens, UniProt P61244 1-160, H28R) (assay: fluorescence polarization).
Sequence of MAX H28R (P61244 whole entry H28R): as the sequence (P61244 whole entry) above, with H28R counted along it

Row | Binder | Kd [nM]
3 | B3 | < 5
4 | B4 | < 5
5 | B5 | < 5
6 | B6 | < 5
7 | B7 | < 5

Target: T1, MAX full length
Assay: fluorescence polarization
Remark: another data set of the same source

Row | Binder | binding signal [fold weaker than C]
8 | B3 | > 13
9 | B4 | 8
10 | B7 | > 13
